Our source for the Kd values is patent US20210363268A1.

What is called Kd is the equilibrium constant for the complex coming apart. Low values mean higher affinity, high ones lower affinity.

The assay concerns the target Biotinylated Human CD39-His. The experiment in a line: MSD equilibrium; Fab.

In turn, SRF399-C had a Kd of 0.053 nM.
